Experiments:
[1] = system: T1, phiC31 integrase mutant 1C1 (Phage phiC31); experiment: cell_activity; settings: human 293 cells, attB plasmid integration into genome; integration at psiA shown by PCR
T1 sequence: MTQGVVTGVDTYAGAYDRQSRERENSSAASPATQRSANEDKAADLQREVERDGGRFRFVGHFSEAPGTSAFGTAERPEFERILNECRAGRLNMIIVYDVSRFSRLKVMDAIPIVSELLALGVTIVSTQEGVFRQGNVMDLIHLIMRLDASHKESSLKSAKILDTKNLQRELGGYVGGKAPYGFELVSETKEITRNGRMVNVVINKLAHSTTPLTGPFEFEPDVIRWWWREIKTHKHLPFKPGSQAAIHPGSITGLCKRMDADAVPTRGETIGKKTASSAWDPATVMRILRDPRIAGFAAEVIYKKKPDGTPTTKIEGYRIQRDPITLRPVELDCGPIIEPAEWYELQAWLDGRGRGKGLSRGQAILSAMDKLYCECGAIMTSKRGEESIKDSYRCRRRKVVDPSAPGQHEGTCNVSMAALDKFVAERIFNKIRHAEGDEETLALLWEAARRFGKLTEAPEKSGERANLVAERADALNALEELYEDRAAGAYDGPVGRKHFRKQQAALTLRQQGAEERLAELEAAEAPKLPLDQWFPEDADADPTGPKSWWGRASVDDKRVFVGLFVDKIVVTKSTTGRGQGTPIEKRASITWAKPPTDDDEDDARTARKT

[2] = system: T2, phiC31 integrase wild-type (Phage phiC31); experiment: cell_activity; settings: human 293 cells, attB plasmid integration into genome, G418 selection
T2 sequence: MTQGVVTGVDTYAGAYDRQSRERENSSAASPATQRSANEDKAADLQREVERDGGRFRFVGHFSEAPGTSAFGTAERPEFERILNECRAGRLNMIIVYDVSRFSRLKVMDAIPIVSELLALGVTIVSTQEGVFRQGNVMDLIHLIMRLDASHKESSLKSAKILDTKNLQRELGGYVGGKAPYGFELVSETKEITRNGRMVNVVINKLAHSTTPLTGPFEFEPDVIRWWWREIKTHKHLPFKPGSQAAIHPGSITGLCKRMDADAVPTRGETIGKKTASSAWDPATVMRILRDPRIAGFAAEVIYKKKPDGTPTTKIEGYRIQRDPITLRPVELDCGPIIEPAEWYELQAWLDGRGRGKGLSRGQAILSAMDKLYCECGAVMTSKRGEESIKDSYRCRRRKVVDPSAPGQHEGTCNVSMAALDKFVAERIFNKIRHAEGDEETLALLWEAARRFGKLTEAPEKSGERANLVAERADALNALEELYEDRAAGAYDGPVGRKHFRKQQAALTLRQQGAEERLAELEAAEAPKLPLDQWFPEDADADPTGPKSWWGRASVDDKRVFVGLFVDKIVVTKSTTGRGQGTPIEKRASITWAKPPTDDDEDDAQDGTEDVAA

CGATGTAGGTCACGGTCTCGAAGCCGCGGTGCGGGTGCCAGGGCGTGCCCTTGGGCTCCCCGGGCGCGTACTCCACCTCACCCATCTGGTCCATCATGATGAACGGGTCGAGGTGGCGGTAGTTGATCCCGGCGAACGCGCGGCGCACCGGGAAGCCCTCGCCCTCGAAACCGCTGGGCGCGGTGGTCACGGTGAGCACGGGACGTGCGACGGCGTCGGCGGGTGCGGATACGCGGGGCAGCGTCAGCGGGTTCTCGACGGTCACGGCGGGCATGTCGA (double strand) [phiC31 attB (full length)]
integration activity (fold colonies vs wild-type integrase) [1]: 2
activity (fold colonies over background) [2]: > 10

Source: patent US20020094516
